Laboratory results as given in patent US20250073311A1, “DOSAGE REGIME” (ZEALAND PHARMA A/S, priority 2021, published 2025).
Numbered stars: 1 amine (or outer) side, 2 acyl side, 3 side chain; on linkers, the order of the positions; unused ones are H or OH. Square brackets hold non-standard residues; d marks the D form. Side chains are listed from the residue outwards. * marks the point of attachment. C18 diacid = O=C(O)CCCCCCCCCCCCCCCCC(=O)*; γGlu = O=C(O)[C@H](CCC(=O)[*:2])N[*:1]; Aib = CC(C)(N)C(=O)O

T1: human GLP-2 receptor (hGLP2-R) (human, UniProt O95838)
T1 sequence: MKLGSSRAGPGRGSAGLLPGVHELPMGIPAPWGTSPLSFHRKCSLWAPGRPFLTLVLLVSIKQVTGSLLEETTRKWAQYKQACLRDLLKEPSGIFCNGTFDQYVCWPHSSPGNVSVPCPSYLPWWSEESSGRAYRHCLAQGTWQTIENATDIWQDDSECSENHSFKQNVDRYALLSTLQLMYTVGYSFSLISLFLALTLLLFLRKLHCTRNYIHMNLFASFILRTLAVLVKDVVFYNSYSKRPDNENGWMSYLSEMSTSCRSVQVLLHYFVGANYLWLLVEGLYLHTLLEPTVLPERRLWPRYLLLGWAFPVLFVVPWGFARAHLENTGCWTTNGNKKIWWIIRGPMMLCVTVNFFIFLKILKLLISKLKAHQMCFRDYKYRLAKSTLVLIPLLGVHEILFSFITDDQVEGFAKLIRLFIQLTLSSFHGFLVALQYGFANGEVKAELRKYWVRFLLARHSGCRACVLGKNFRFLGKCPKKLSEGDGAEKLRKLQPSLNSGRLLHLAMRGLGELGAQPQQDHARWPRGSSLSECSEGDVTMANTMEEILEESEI


Tests used:
[1] = biological target: T1, human GLP-2 receptor (hGLP2-R); assay: cell-based or functional assay
[2] = biological target: human glucagon-like peptide 1 receptor (GLP-1R) (human, UniProt P43220); assay: cell-based or functional assay

Row | Binder | EC50 GLP-2 (nM), cAMP AlphaScreen [1] [nM] | EC50 GLP-1 (nM), cAMP AlphaScreen [2] [nM]
1 | H-H[Aib]EGTFTSELATILDK([γGlu-C18 diacid])QAARDFIAWLIAHKITD-OH (SMILES CC[C@H](C)[C@H](NC(=O)[C@H](CC(C)C)NC(=O)[C@H](Cc1c[nH]c2ccccc12)NC(=O)[C@H](C)NC(=O)[C@@H](NC(=O)[C@H](Cc1ccccc1)NC(=O)[C@H](CC(=O)O)NC(=O)[C@H](CCCNC(=N)N)NC(=O)[C@H](C)NC(=O)[C@H](C)NC(=O)[C@H](CCC(N)=O)NC(=O)[C@H](CCCCNC(=O)CC[C@H](NC(=O)CCCCCCCCCCCCCCCCC(=O)O)C(=O)O)NC(=O)[C@H](CC(=O)O)NC(=O)[C@H](CC(C)C)NC(=O)[C@@H](NC(=O)[C@@H](NC(=O)[C@H](C)NC(=O)[C@H](CC(C)C)NC(=O)[C@H](CCC(=O)O)NC(=O)[C@H](CO)NC(=O)[C@@H](NC(=O)[C@H](Cc1ccccc1)NC(=O)[C@@H](NC(=O)CNC(=O)[C@H](CCC(=O)O)NC(=O)C(C)(C)NC(=O)[C@@H](N)Cc1c[nH]cn1)[C@@H](C)O)[C@@H](C)O)[C@@H](C)O)[C@@H](C)CC)[C@@H](C)CC)C(=O)N[C@@H](C)C(=O)N[C@@H](Cc1c[nH]cn1)C(=O)N[C@@H](CCCCN)C(=O)N[C@H](C(=O)N[C@H](C(=O)N[C@@H](CC(=O)O)C(=O)O)[C@@H](C)O)[C@@H](C)CC) [Compound 23] | 0.24 | 0.13
2 | H-H[Aib]EGSFTSELATILDK([γGlu-C18 diacid])QAARDFIAWLIAHKITD-OH (SMILES CC[C@H](C)[C@H](NC(=O)[C@H](CC(C)C)NC(=O)[C@H](Cc1c[nH]c2ccccc12)NC(=O)[C@H](C)NC(=O)[C@@H](NC(=O)[C@H](Cc1ccccc1)NC(=O)[C@H](CC(=O)O)NC(=O)[C@H](CCCNC(=N)N)NC(=O)[C@H](C)NC(=O)[C@H](C)NC(=O)[C@H](CCC(N)=O)NC(=O)[C@H](CCCCNC(=O)CC[C@H](NC(=O)CCCCCCCCCCCCCCCCC(=O)O)C(=O)O)NC(=O)[C@H](CC(=O)O)NC(=O)[C@H](CC(C)C)NC(=O)[C@@H](NC(=O)[C@@H](NC(=O)[C@H](C)NC(=O)[C@H](CC(C)C)NC(=O)[C@H](CCC(=O)O)NC(=O)[C@H](CO)NC(=O)[C@@H](NC(=O)[C@H](Cc1ccccc1)NC(=O)[C@H](CO)NC(=O)CNC(=O)[C@H](CCC(=O)O)NC(=O)C(C)(C)NC(=O)[C@@H](N)Cc1c[nH]cn1)[C@@H](C)O)[C@@H](C)O)[C@@H](C)CC)[C@@H](C)CC)C(=O)N[C@@H](C)C(=O)N[C@@H](Cc1c[nH]cn1)C(=O)N[C@@H](CCCCN)C(=O)N[C@H](C(=O)N[C@H](C(=O)N[C@@H](CC(=O)O)C(=O)O)[C@@H](C)O)[C@@H](C)CC) [Compound 22] | 0.2 | 0.23
3 | H-H[Aib]EGTFSSELATILDK([γGlu-C18 diacid])QAARDFIAWLIEHKITD-OH (SMILES CC[C@H](C)[C@H](NC(=O)[C@H](Cc1ccccc1)NC(=O)[C@H](CC(=O)O)NC(=O)[C@H](CCCNC(=N)N)NC(=O)[C@H](C)NC(=O)[C@H](C)NC(=O)[C@H](CCC(N)=O)NC(=O)[C@H](CCCCNC(=O)CC[C@H](NC(=O)CCCCCCCCCCCCCCCCC(=O)O)C(=O)O)NC(=O)[C@H](CC(=O)O)NC(=O)[C@H](CC(C)C)NC(=O)[C@@H](NC(=O)[C@@H](NC(=O)[C@H](C)NC(=O)[C@H](CC(C)C)NC(=O)[C@H](CCC(=O)O)NC(=O)[C@H](CO)NC(=O)[C@H](CO)NC(=O)[C@H](Cc1ccccc1)NC(=O)[C@@H](NC(=O)CNC(=O)[C@H](CCC(=O)O)NC(=O)C(C)(C)NC(=O)[C@@H](N)Cc1c[nH]cn1)[C@@H](C)O)[C@@H](C)O)[C@@H](C)CC)C(=O)N[C@@H](C)C(=O)N[C@@H](Cc1c[nH]c2ccccc12)C(=O)N[C@@H](CC(C)C)C(=O)N[C@H](C(=O)N[C@@H](CCC(=O)O)C(=O)N[C@@H](Cc1c[nH]cn1)C(=O)N[C@@H](CCCCN)C(=O)N[C@H](C(=O)N[C@H](C(=O)N[C@@H](CC(=O)O)C(=O)O)[C@@H](C)O)[C@@H](C)CC)[C@@H](C)CC) [Compound 20] | 0.37 | 0.55
4 | H-H[Aib]EGTFSSELATILDK([γGlu-C18 diacid])QAARDFIAWLIAHKITD-OH (SMILES CC[C@H](C)[C@H](NC(=O)[C@H](CC(C)C)NC(=O)[C@H](Cc1c[nH]c2ccccc12)NC(=O)[C@H](C)NC(=O)[C@@H](NC(=O)[C@H](Cc1ccccc1)NC(=O)[C@H](CC(=O)O)NC(=O)[C@H](CCCNC(=N)N)NC(=O)[C@H](C)NC(=O)[C@H](C)NC(=O)[C@H](CCC(N)=O)NC(=O)[C@H](CCCCNC(=O)CC[C@H](NC(=O)CCCCCCCCCCCCCCCCC(=O)O)C(=O)O)NC(=O)[C@H](CC(=O)O)NC(=O)[C@H](CC(C)C)NC(=O)[C@@H](NC(=O)[C@@H](NC(=O)[C@H](C)NC(=O)[C@H](CC(C)C)NC(=O)[C@H](CCC(=O)O)NC(=O)[C@H](CO)NC(=O)[C@H](CO)NC(=O)[C@H](Cc1ccccc1)NC(=O)[C@@H](NC(=O)CNC(=O)[C@H](CCC(=O)O)NC(=O)C(C)(C)NC(=O)[C@@H](N)Cc1c[nH]cn1)[C@@H](C)O)[C@@H](C)O)[C@@H](C)CC)[C@@H](C)CC)C(=O)N[C@@H](C)C(=O)N[C@@H](Cc1c[nH]cn1)C(=O)N[C@@H](CCCCN)C(=O)N[C@H](C(=O)N[C@H](C(=O)N[C@@H](CC(=O)O)C(=O)O)[C@@H](C)O)[C@@H](C)CC) [Compound 21] | 0.27 | 1.8
5 | H-H[Aib]EGTFTSELATILDK([γGlu-C18 diacid])QAARDFIAWLIQHKITD-OH (SMILES CC[C@H](C)[C@H](NC(=O)[C@H](Cc1ccccc1)NC(=O)[C@H](CC(=O)O)NC(=O)[C@H](CCCNC(=N)N)NC(=O)[C@H](C)NC(=O)[C@H](C)NC(=O)[C@H](CCC(N)=O)NC(=O)[C@H](CCCCNC(=O)CC[C@H](NC(=O)CCCCCCCCCCCCCCCCC(=O)O)C(=O)O)NC(=O)[C@H](CC(=O)O)NC(=O)[C@H](CC(C)C)NC(=O)[C@@H](NC(=O)[C@@H](NC(=O)[C@H](C)NC(=O)[C@H](CC(C)C)NC(=O)[C@H](CCC(=O)O)NC(=O)[C@H](CO)NC(=O)[C@@H](NC(=O)[C@H](Cc1ccccc1)NC(=O)[C@@H](NC(=O)CNC(=O)[C@H](CCC(=O)O)NC(=O)C(C)(C)NC(=O)[C@@H](N)Cc1c[nH]cn1)[C@@H](C)O)[C@@H](C)O)[C@@H](C)O)[C@@H](C)CC)C(=O)N[C@@H](C)C(=O)N[C@@H](Cc1c[nH]c2ccccc12)C(=O)N[C@@H](CC(C)C)C(=O)N[C@H](C(=O)N[C@@H](CCC(N)=O)C(=O)N[C@@H](Cc1c[nH]cn1)C(=O)N[C@@H](CCCCN)C(=O)N[C@H](C(=O)N[C@H](C(=O)N[C@@H](CC(=O)O)C(=O)O)[C@@H](C)O)[C@@H](C)CC)[C@@H](C)CC) [Compound 19] | 0.23 | 0.066

Further lines, results first:

Row | EC50 GLP-2 (nM), cAMP AlphaScreen [1] [nM] | EC50 GLP-1 (nM), cAMP AlphaScreen [2] [nM] | Binder
6 | 0.17 | 0.21 | H-H[Aib]EGSFTSELATILDK([γGlu-C18 diacid])QAARDFIAWLIEHKITD-OH (SMILES CC[C@H](C)[C@H](NC(=O)[C@H](Cc1ccccc1)NC(=O)[C@H](CC(=O)O)NC(=O)[C@H](CCCNC(=N)N)NC(=O)[C@H](C)NC(=O)[C@H](C)NC(=O)[C@H](CCC(N)=O)NC(=O)[C@H](CCCCNC(=O)CC[C@H](NC(=O)CCCCCCCCCCCCCCCCC(=O)O)C(=O)O)NC(=O)[C@H](CC(=O)O)NC(=O)[C@H](CC(C)C)NC(=O)[C@@H](NC(=O)[C@@H](NC(=O)[C@H](C)NC(=O)[C@H](CC(C)C)NC(=O)[C@H](CCC(=O)O)NC(=O)[C@H](CO)NC(=O)[C@@H](NC(=O)[C@H](Cc1ccccc1)NC(=O)[C@H](CO)NC(=O)CNC(=O)[C@H](CCC(=O)O)NC(=O)C(C)(C)NC(=O)[C@@H](N)Cc1c[nH]cn1)[C@@H](C)O)[C@@H](C)O)[C@@H](C)CC)C(=O)N[C@@H](C)C(=O)N[C@@H](Cc1c[nH]c2ccccc12)C(=O)N[C@@H](CC(C)C)C(=O)N[C@H](C(=O)N[C@@H](CCC(=O)O)C(=O)N[C@@H](Cc1c[nH]cn1)C(=O)N[C@@H](CCCCN)C(=O)N[C@H](C(=O)N[C@H](C(=O)N[C@@H](CC(=O)O)C(=O)O)[C@@H](C)O)[C@@H](C)CC)[C@@H](C)CC) [Compound 24]
7 | 0.33 | 0.094 | H-H[Aib]EGTFTSELATILDK([γGlu-C18 diacid])QAARDFIAWLIEHKITD-OH (SMILES CC[C@H](C)[C@H](NC(=O)[C@H](Cc1ccccc1)NC(=O)[C@H](CC(=O)O)NC(=O)[C@H](CCCNC(=N)N)NC(=O)[C@H](C)NC(=O)[C@H](C)NC(=O)[C@H](CCC(N)=O)NC(=O)[C@H](CCCCNC(=O)CC[C@H](NC(=O)CCCCCCCCCCCCCCCCC(=O)O)C(=O)O)NC(=O)[C@H](CC(=O)O)NC(=O)[C@H](CC(C)C)NC(=O)[C@@H](NC(=O)[C@@H](NC(=O)[C@H](C)NC(=O)[C@H](CC(C)C)NC(=O)[C@H](CCC(=O)O)NC(=O)[C@H](CO)NC(=O)[C@@H](NC(=O)[C@H](Cc1ccccc1)NC(=O)[C@@H](NC(=O)CNC(=O)[C@H](CCC(=O)O)NC(=O)C(C)(C)NC(=O)[C@@H](N)Cc1c[nH]cn1)[C@@H](C)O)[C@@H](C)O)[C@@H](C)O)[C@@H](C)CC)C(=O)N[C@@H](C)C(=O)N[C@@H](Cc1c[nH]c2ccccc12)C(=O)N[C@@H](CC(C)C)C(=O)N[C@H](C(=O)N[C@@H](CCC(=O)O)C(=O)N[C@@H](Cc1c[nH]cn1)C(=O)N[C@@H](CCCCN)C(=O)N[C@H](C(=O)N[C@H](C(=O)N[C@@H](CC(=O)O)C(=O)O)[C@@H](C)O)[C@@H](C)CC)[C@@H](C)CC) [Compound 25]
